Measurements published in US20240002499A1, “ANTI-CLIC1 PROTEIN ANTIBODIES AND THE DIAGNOSTIC AND THERAPEUTIC USES THEREOF” (Universita' Degli Studi di Milano, priority 2020, published 2024).
“Also recorded” adds a separate entry of the source.

Key:
CLIC1 = molecular target: T1, CLIC1 (Homo sapiens, UniProt O00299); experiment: Whole-cell patch clamp on HEK cells transfected with CLIC1 plasmid; format: cell-based; settings: HEK cells overexpressing CLIC1; voltage steps from −60 to +80 mV; IAA94 50 μM
T1 construct: expressed in transfected cells; host or cells: HEK cells
Experimental: FIG. 17. Current/voltage relationship of CLIC1 membrane current in whole-cell patch clamp experiments. HEK cells were transfected with CLIC1 plasmid to overexpress the CLIC1 protein. After recording control current (filled cycles; n=5) cells were perfused alternatively with the polyclonal antibody (open triangles; n=7), tmCLIComab (inverse open triangles; n=10) and with 50 μM IAA94 (filled squared; n=11). The whole cells current is expressed as a current density.
The reference sequence of the CLIC1 protein used in the experiments described in the present patent application is filed at UniProt under number UniProtKB—000299 (CLIC1 human), and described in the article Harrop S. J. et al., “Crystal structure of a soluble form of the intracellular chloride ion channel CLIC1 (NCC27) at 1.4-Å Resolution”; The Journal of Biological Chemistry, Vol. 276 No. 48, November 30, pp. 44993-45000 (2001).
The potential was set on the basis of the resting potential of each cell (between 0 and −80 mV). The CLIC1-mediated chlorine currents were isolated from other ion currents by mathematical subtraction of the residual current following perfusion of 100 μM IAA94 dissolved in the external solution.

microglial cells = experiment: Growth curves of microglial cells stimulated with β-amyloid; format: cell-based, mice; settings: 1 μM β-amyloid, 4-day observation period
Experimental: (§1) The microglial cells used (BV-2) originated from an immortalised cell line deriving from C57BL/6 mice and commonly marketed. The culture medium used was RPMI (Thermo Fisher Scientific) with the addition of 10% FBS (Euroclone) and 1% Pen/Strep ([…], Thermo Fisher Scientific).
The cells were seeded in 24-well plates (20,000 cells/well) and counted after 24, 48, 72 and 96 hours to construct the growth curve. The cells were collected and centrifuged, and the resuspended pellet was diluted 1:1 with Trypan Blue. An automated counter (Countess II, Thermo Fisher Scientific) was used to count the cells. All data were normalized to their controls.

tmCLIC1 ion channel [1] = molecular target: T2, tmCLIC1 ion channel (Homo sapiens, UniProt O00299); experiment: Patch clamp of CLIC1-mediated chloride current in primary human tumour cultures; format: cell-based; settings: perforated patch clamp; glioblastoma, colorectal and prostate primary human tumour cultures; perfusion of antibody
T2 construct: endogenous in cells; host or cells: primary human glioblastoma, colorectal cancer and prostate cancer cells
Experimental: (§2) The microelectrodes were obtained from borosilicate capillaries with a diameter of 1.5 mm. Micropipettes were produced with a P-97 Brown-Flaming puller (Sutter Instruments, Novato, CA), with which the capillaries were forged to a tip diameter of 1-1.5 μm and electrical resistance of 5-8 MΩ.
(§3) The perforated patch clamp configuration was used for the whole-cell experiments, employing the antibiotic gramicidin (final concentration in pipette 5 μg/ml) which forms pores in the membrane that are only permeable to monovalent cations; in this way, the cytoplasmic concentration of the chloride ion remains unchanged throughout the experiment. The ion currents were digitised at 5 kHz and filtered at 1 kHz. Clampex 9.2 was used as the data acquisition and analysis programme.
(§4) In the time-course experiments, the potential was set on the basis of the resting potential of each cell, and a voltage step of +60 mV was applied every 5 seconds. The current measured is that observed at the end of the voltage step lasting 800 ms. When the amplitude of the current reaches a constant value, the antibody and IAA94 are added in sequence.
For the current-voltage graph, the voltage step protocol used to isolate the currents consisted of voltage variations ranging from −60 mV to +60 mV, with progressive increments of 20 mV lasting 800 ms. […]

tmCLIC1 = molecular target: T3, tmCLIC1 (Homo sapiens, UniProt O00299); experiment: Immunofluorescence on monocytes isolated from peripheral blood; format: cell-based; settings: monocytes of Alzheimer's disease patients and controls, fluorescent secondary antibody
T3 construct: monocytes isolated from the peripheral blood of patients with a diagnosis of Alzheimer's disease and controls; endogenous in cells; host or cells: human peripheral blood monocytes (Alzheimer's disease patients and healthy controls)
Experimental: For each individual, 8 ml of peripheral blood was collected in BD Vacutainer® CPT™ test tubes with sodium citrate, gently mixed by inversion and centrifuged at room temperature for 20 min. at 1600 rpm to separate three distinct phases: a bottom layer containing red blood cells, an intermediate layer containing mononuclear cells, and a top layer containing plasma. The layer of mononuclear cells was collected together with part of the plasma and transferred to a centrifuge tube. PBS was added until a final volume of […] was reached, and it was gently mixed by inversion and centrifuged for 10 min. at 300 rpm. The resulting pellet underwent two further washes in 5 ml of PBS, and was used for the subsequent experiments.
The pellet of mononuclear cells isolated from the blood was counted and divided into samples containing an equal number of cells (1×10^6 cells/sample). Each sample was resuspended in 90 μl of cold staining solution (0.5% BSA, 2 mM EDTA in PBS) and, after the addition of 10 μl of FcR blocker (Miltenyi Biotec), was incubated in ice for 15 min. 10 μl of primary antibody diluted in staining solution was then added, and the sample was incubated for 1 h in ice. At the end of the incubation period, each sample was washed with 1 ml of cold staining solution and centrifuged at 350 rpm for 5 min. […]

human glioblastoma cells = experiment: ROS production in human glioblastoma cells in primary culture; format: cell-based
Experimental: In the subsequent functional experiment, ROS production was measured over time. The graph in FIG. 11 relates to the acquisition of fluorescence signals proportional to the amount of cytoplasmic ROS in glioblastoma cells. The cells were treated with both the antibody and the tmCLIC1 channel blocker.

pMAP38 = experiment: Western blot of phosphorylated MAP38 in COLO201; format: cell-based; settings: COLO201, 72 h of treatment
tmCLIC1 ion channel [2] = molecular target: T4, tmCLIC1 ion channel (Mus musculus, UniProt Q9Z1Q5); experiment: Whole-cell patch clamp on BV2 microglial cells with β-amyloid; format: cell-based, mice; settings: whole-cell configuration, perfusion of antibody after β-amyloid
T4 construct: endogenous in cells; host or cells: BV-2 mouse microglial cell line
Excerpt: as §1, §2, §3
as §4, with “sequence. […]” for “sequence.”

B1: tmCLIC1omab: IgG1 class antibody containing the heavy chain variable region SEQ ID NO:13 and the light chain variable region SEQ ID NO:14 (antibody, listed as Mus musculus, V domains shown)
VH: EVMLVESGGGLVKPGGSLKLSCAASGFAFSNYAMSWIRQIPEKRLEWVATISTGGSSTFYPDSVKGRFTISRDNAKNTLYLQMSSLRSEDTAMYYCTRHAYEAWFAYWGQGTLVTVSA
VL: QIVLTQSPALMSASPGEKVTMTCSASSSVSYMYWYQQRPRSSPKPWIYLTSTLASGVPTRFSGSGSGTSYSLTISSMEAEDAATYYCQQWNSHPLTFGSGTKLEIK
- inhibition of CLIC1 ionic whole-cell current (CLIC1): matched only by tmCLIC1omab
- cell proliferation in the presence of β-amyloid (microglial cells): completely inhibited
- CLIC1-mediated chloride current (current density/voltage) (tmCLIC1 ion channel [1]): almost totally eliminated; also recorded: depressed and almost eliminated the membrane current
- specificity of staining on monocytes (tmCLIC1): specificity of the antibody for the membrane protein
- fall in ROS production (human glioblastoma cells; FIG. 11 legend, versus control): about fourfold
- reduction of the slope of the ROS increase curve (human glioblastoma cells; fluorescence signals proportional to cytoplasmic ROS): about fivefold
- expression of pMAP38 (pMAP38): downregulated
- reduction of membrane current increased by β-amyloid peptide (tmCLIC1 ion channel [2]): about fourfold
